{
  "source": "patent US20230203107A1",
  "about": "“PEPTIDE FOR TREATING SEPSIS DERIVED FROM RV3364C PROTEIN OF MYCOBACTERIUM TUBERCULOSIS” (priority 2021, published 2023)",
  "molecules": {"B1": {"name": "recombinant Rv3364c (rRv3364c) protein, N-terminal 6xHis tag (other)", "chain": "MKARLPDSPLDWLVSKFAREVPGVAHALLVSVDGLPVAASEHLPRERADQLAAVTSGLASLAGGAAQLFDGGQVLQSVVEMQNGYLLLMQVGDGSALAALAATGCDIGQIGYEMAILVERVGGVVQSCRR", "notes": "also called His-rRv3364c; not shown: N-terminal 6xHis tag from the pRSFDuet-1 vector"}},
  "key": {"[1]": {"molecular_target": "T1, interaction between SNX9 and Rv3364c (Homo sapiens, UniProt Q9Y5X1)", "T1 construct": "different regions 1-595, 1-250, 250-361, and 392-595 of SNX9; host or cells: 293 / HEK293T", "T1 sequence (Q9Y5X1 whole entry)": "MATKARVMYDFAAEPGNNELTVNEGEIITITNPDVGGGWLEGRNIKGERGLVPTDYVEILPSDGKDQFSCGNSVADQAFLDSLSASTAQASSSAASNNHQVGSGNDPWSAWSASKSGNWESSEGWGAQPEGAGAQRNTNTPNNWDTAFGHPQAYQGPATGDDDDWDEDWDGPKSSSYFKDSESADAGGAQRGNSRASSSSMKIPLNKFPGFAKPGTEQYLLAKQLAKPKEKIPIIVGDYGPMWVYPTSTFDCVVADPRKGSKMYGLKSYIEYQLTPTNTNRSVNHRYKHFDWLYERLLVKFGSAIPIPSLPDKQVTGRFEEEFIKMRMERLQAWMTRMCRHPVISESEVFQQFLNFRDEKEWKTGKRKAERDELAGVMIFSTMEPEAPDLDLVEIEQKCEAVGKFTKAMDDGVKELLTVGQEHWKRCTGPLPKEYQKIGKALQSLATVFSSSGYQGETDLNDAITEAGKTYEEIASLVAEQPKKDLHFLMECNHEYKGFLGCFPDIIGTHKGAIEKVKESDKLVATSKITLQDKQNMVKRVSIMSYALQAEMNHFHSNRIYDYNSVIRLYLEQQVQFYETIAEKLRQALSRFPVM", "type": "cell-based"}, "[2]": {"molecular_target": "T2, interaction between YEATS4 and Rv3364c (Homo sapiens, UniProt O95619)", "T2 construct": "host or cells: 293 / HEK293T", "T2 sequence (O95619 whole entry)": "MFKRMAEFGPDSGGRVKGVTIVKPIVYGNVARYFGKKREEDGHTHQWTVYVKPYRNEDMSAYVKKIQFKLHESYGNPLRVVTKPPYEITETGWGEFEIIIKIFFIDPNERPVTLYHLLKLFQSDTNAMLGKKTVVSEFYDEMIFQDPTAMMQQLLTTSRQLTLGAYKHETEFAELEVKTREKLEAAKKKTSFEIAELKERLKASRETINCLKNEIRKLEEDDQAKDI", "type": "cell-based"}, "[3]": {"molecular_target": "T3, interaction between SNX9 and p47phox (Homo sapiens, UniProt Q9Y5X1)", "T3 construct": "different regions 1-595, 1-250, 250-361, and 392-595 of SNX9; p47phox plasmid as in Biomaterials 2016, 89, 1-13; host or cells: HEK293T", "T3 sequence (Q9Y5X1 whole entry)": "as the sequence (Q9Y5X1 whole entry) above", "type": "cell-based", "settings": "HEK293T cells, Flag-Rv3364c 1, 5, 10 μg, 12 hours"}, "[4]": {"molecular_target": "T4, endogenous EGFLAM of mouse macrophages (BMDM) (mouse, UniProt Q4VBE4 25-1017)", "T4 sequence": "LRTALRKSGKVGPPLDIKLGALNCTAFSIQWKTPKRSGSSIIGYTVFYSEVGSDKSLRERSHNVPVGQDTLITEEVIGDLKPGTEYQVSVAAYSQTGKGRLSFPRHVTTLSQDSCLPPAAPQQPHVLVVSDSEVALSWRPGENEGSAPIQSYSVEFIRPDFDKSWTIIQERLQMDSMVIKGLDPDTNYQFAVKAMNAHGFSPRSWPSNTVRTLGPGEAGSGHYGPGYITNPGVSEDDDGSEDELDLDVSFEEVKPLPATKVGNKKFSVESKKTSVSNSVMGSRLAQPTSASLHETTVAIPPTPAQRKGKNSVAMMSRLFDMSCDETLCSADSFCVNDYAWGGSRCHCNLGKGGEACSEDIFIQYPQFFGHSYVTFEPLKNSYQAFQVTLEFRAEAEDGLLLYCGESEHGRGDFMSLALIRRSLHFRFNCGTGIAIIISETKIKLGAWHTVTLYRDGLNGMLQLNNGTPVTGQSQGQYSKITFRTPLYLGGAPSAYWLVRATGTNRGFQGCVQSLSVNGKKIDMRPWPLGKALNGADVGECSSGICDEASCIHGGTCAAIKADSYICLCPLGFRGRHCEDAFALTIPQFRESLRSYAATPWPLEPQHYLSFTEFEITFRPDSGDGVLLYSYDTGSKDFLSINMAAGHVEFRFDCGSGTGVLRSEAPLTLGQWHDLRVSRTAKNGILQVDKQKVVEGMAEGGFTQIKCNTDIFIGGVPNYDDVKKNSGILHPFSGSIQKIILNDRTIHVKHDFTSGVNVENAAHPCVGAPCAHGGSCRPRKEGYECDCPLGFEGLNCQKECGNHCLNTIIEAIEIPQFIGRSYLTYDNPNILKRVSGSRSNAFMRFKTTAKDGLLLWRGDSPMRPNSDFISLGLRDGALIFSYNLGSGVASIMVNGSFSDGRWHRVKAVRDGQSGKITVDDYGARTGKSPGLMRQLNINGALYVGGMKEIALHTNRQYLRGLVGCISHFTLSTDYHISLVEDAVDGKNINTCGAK", "test": "anti-His co-IP from BMDM treated with rRv3364c, anti-EGFLAM blot"}, "[5]": {"molecular_target": "T5, endogenous ZBTB46 of mouse macrophages (BMDM) (mouse, UniProt Q8BID6 1-600)", "T5 sequence": "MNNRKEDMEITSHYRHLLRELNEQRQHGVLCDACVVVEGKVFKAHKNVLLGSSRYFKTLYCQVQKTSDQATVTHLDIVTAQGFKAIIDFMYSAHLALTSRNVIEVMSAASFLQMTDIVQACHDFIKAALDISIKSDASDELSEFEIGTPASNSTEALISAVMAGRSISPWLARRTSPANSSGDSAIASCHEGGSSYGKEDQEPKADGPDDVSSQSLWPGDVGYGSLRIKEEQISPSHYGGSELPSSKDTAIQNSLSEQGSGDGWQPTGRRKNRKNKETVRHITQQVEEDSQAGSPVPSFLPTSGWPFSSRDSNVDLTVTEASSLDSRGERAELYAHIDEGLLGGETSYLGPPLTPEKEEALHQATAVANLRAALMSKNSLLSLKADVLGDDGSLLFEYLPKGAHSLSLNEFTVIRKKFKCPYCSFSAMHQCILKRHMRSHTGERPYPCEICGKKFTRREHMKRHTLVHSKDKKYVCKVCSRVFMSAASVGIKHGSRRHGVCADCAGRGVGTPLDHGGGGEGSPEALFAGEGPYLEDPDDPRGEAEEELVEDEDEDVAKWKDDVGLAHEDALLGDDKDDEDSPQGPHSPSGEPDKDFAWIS", "test": "anti-His co-IP from BMDM treated with rRv3364c, anti-ZBTB46 blot"}, "[6]": {"molecular_target": "T6, endogenous SNX9 of mouse macrophages (BMDM, Raw264.7) (mouse, UniProt Q91VH2 1-595)", "T6 construct": "also called SNC9", "T6 sequence (Q91VH2 whole entry)": "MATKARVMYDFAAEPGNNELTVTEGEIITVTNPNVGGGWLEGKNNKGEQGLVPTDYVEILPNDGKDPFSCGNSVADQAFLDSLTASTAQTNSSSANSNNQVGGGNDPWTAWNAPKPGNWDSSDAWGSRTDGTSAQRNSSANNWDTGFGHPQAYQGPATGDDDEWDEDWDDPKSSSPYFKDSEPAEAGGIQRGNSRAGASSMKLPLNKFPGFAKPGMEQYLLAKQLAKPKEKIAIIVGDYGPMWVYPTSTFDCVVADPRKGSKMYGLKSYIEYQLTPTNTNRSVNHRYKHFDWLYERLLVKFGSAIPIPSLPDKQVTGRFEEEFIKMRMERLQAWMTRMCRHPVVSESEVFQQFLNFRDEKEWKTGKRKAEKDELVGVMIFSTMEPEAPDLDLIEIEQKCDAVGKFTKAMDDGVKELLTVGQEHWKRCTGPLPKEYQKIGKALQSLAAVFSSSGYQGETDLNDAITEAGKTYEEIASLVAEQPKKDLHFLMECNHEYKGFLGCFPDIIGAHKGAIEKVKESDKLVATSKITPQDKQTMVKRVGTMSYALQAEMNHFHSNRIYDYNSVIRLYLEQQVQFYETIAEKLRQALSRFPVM", "test": "anti-His co-IP from BMDM treated with 1 ug/ml rRv3364c, anti-SNX9 blot"}, "[7]": {"molecular_target": "endogenous YEATS4 of mouse macrophages (BMDM, Raw264.7) (mouse, UniProt Q9CR11 1-227)", "sequence (Q9CR11 whole entry)": "as the sequence (O95619 whole entry) above, with A224T counted along it", "test": "anti-His co-IP from BMDM treated with 1 ug/ml rRv3364c, anti-YEATS4 blot"}, "[8]": {"molecular_target": "SNX9 (sorting nexin 9), full-length recombinant human protein on the HuProt microarray (human, UniProt Q9Y5X1 1-595)", "sequence (Q9Y5X1 whole entry)": "as the sequence (Q9Y5X1 whole entry) above", "test": "HuProt human proteome microarray, biotinylated rRv3364c, streptavidin Alexa Fluor 532"}, "[9]": {"molecular_target": "YEATS4 (YEATS domain-containing protein 4), full-length recombinant human protein on the HuProt microarray (human, UniProt O95619 1-227)", "sequence (O95619 whole entry, the tested form may be a part)": "as the sequence (O95619 whole entry) above", "test": "HuProt human proteome microarray, biotinylated rRv3364c, streptavidin Alexa Fluor 532"}, "[10]": {"molecular_target": "T7, ZBTB46 (zinc finger and BTB domain-containing 46), full-length recombinant human protein on the HuProt … (human, UniProt Q86UZ6 1-589)", "T7 sequence": "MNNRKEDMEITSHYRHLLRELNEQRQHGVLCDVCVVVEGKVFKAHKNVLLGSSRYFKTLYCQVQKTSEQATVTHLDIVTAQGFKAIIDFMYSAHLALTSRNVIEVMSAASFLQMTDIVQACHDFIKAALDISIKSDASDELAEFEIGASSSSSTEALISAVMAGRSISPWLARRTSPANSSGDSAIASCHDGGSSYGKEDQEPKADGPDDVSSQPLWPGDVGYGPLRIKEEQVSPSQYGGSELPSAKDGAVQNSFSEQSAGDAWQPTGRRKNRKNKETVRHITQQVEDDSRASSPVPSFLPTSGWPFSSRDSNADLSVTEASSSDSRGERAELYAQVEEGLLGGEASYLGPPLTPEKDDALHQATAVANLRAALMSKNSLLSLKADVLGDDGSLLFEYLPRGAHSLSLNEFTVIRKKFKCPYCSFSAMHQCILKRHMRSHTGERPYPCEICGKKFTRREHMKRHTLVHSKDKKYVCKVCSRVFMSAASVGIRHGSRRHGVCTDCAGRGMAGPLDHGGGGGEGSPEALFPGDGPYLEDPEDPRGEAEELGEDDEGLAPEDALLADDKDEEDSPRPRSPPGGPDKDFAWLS", "test": "HuProt human proteome microarray, biotinylated rRv3364c, streptavidin Alexa Fluor 532"}},
  "data": [
    {"molecule": "DWLVSKFARE [Tat-Rv3364c (11DWLVSKFARE20)]", "values": [
      {"measurement": "blocking of the interaction between SNX9 and Rv3364c", "setting": "[1]; 293 cells with Myc-SNX9 and Flag-Rv3364c, peptide 5 μM, 12 hours", "result": "block the interaction between SNX9 and Rv3364c"}
    ]},
    {"molecule": "MKARLPDSPL [Tat-Rv3364c (1MKARLPDSPL10)]", "values": [
      {"measurement": "blocking of the interaction between YEATS4 and Rv3364c", "setting": "[2]", "result": "block the interaction between YEATS4 and Rv3364c"}
    ]},
    {"molecule": "Rv3364c: Rv3364c protein of Mycobacterium tuberculosis, expressed in 293T cells from a Flag-tagged plasmid", "values": [
      {"measurement": "interaction between SNX9 and p47phox", "setting": "[3]", "result": "decreased as the amount of Rv3364c increased"}
    ]},
    {"molecule": "WLVSKF (Rv3364c(12-17 aa)) [12WLVSKF17]", "values": [
      {"measurement": "region of Rv3364c required for interaction with SNX9", "setting": "[1]; FIG. 5", "result": "minimum peptide essential for interaction with SNX9"}
    ]},
    {"molecule": "B1", "values": [
      {"measurement": "binding result", "setting": "[4]", "result": "no binding (tested: 1 ug/ml rRv3364c)"},
      {"measurement": "binding result", "setting": "[5]", "result": "no binding (tested: 1 ug/ml rRv3364c)"},
      {"measurement": "binding result", "setting": "[6]", "result": "binds"},
      {"measurement": "binding result", "setting": "[7]", "result": "binds"},
      {"measurement": "binding result", "setting": "[8]", "result": "binds"},
      {"measurement": "binding result", "setting": "[9]", "result": "binds"},
      {"measurement": "binding result", "setting": "[10]", "result": "binds"}
    ]}
  ]
}
